Assay results: patent US20030108554A1 (published 2003)

How the values were obtained:
Test in all cases: yeast two-hybrid
yeast two-hybrid = target: the molecule itself
GIP130a = target: T1, GIP130a (human, UniProt Q4L180 1-1135)
T1 construct: Full length; tested as GAL4 domain fusion in yeast two-hybrid
T1 sequence: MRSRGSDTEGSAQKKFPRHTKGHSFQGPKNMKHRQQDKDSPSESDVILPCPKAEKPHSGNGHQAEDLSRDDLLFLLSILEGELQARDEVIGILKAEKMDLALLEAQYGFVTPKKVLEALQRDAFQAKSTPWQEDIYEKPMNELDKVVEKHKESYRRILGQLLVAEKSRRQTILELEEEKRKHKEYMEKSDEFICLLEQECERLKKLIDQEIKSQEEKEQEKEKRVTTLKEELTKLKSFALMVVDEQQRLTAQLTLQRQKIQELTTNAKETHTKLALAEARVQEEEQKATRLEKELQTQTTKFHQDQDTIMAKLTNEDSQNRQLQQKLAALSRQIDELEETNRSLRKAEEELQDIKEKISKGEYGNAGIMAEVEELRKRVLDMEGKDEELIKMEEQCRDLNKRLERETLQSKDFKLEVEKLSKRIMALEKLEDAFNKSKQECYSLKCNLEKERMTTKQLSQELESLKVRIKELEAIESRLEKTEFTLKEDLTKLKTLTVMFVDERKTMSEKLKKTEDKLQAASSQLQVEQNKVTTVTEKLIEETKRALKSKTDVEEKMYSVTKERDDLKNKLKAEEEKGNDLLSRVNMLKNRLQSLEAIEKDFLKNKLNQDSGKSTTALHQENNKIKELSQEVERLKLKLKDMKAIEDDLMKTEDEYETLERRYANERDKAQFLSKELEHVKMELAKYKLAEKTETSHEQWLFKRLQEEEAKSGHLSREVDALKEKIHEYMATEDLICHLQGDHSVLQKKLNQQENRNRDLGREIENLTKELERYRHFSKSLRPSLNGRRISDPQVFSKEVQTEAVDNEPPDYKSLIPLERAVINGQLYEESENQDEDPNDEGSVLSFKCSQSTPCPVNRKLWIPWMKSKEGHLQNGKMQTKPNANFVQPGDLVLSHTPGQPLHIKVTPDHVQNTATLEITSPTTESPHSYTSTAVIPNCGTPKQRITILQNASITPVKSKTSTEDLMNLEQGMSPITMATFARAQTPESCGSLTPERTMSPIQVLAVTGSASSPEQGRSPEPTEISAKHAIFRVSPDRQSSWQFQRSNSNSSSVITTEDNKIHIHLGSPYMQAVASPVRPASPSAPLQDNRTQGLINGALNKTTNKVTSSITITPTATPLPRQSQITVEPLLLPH

GIP130c = target: T2, GIP130c (human, UniProt Q4L180 1-1128)
T2 construct: Full length; tested as GAL4 domain fusion in yeast two-hybrid
T2 sequence: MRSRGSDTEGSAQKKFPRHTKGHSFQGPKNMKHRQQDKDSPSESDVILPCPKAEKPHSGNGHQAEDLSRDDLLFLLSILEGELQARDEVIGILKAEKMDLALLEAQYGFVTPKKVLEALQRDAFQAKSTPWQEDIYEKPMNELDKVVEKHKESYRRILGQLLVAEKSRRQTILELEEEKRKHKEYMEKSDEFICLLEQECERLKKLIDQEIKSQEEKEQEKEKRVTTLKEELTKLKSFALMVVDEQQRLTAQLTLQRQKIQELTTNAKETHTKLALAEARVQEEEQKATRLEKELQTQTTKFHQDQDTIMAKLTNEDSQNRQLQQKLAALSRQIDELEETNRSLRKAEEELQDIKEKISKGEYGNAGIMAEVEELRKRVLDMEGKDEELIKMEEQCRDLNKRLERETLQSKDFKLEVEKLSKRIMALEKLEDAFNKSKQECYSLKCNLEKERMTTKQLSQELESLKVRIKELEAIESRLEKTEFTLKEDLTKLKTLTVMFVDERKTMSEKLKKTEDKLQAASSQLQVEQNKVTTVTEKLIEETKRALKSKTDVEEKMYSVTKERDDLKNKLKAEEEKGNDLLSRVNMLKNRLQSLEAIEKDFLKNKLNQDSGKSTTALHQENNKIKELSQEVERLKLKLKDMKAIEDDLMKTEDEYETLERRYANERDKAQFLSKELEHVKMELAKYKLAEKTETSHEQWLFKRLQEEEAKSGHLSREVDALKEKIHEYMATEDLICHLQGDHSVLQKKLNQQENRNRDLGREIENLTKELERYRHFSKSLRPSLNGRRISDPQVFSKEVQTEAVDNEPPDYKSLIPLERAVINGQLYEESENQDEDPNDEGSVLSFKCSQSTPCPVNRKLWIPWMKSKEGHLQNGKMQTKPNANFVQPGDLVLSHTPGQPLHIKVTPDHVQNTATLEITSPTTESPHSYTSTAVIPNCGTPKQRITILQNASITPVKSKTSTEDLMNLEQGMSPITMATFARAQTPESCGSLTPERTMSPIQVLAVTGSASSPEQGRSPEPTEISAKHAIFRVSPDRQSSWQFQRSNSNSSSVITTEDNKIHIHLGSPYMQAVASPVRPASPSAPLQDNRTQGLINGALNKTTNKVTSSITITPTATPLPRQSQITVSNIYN

GIP130b = target: T3, GIP130b (human, UniProt Q4L180 1-1128)
T3 construct: Full length; tested as GAL4 domain fusion in yeast two-hybrid
T3 sequence: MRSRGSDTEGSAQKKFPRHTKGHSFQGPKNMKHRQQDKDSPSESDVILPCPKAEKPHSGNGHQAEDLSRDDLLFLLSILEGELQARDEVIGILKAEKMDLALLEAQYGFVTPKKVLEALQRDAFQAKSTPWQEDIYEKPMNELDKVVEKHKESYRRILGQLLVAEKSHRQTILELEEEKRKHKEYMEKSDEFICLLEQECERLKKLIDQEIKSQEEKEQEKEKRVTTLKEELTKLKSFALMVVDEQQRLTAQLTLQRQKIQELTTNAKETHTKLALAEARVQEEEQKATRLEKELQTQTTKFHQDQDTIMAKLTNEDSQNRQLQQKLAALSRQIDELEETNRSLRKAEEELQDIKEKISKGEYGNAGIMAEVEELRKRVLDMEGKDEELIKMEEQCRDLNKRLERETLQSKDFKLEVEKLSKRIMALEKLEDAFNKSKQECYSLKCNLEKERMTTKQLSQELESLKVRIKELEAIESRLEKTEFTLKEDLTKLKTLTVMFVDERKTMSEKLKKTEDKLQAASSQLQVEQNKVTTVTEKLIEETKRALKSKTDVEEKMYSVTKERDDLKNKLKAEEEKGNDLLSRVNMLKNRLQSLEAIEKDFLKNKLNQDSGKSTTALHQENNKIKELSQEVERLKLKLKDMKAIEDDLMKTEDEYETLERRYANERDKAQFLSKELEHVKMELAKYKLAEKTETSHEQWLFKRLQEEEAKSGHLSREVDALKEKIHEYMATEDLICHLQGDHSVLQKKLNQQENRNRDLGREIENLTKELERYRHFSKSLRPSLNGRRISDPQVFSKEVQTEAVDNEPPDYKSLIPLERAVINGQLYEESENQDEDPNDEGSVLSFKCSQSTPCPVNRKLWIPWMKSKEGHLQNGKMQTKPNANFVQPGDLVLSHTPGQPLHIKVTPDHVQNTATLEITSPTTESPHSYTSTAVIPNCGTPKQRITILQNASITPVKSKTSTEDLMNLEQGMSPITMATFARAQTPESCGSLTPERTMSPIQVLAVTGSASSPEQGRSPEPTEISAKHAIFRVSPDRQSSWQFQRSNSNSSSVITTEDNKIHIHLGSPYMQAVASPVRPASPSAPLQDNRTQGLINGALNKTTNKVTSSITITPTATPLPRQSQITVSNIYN

Measured: binding result

B1: GIP90 (GPBP interacting protein 90 kDa) (other)
chain: MRSRGSDTEGSAQKKFPRHTKGHSFQGPKNMKHRQQDKDSPSESDVILPCPKAEKPHSGNGHQAEDLSRDDLLFLLSILEGELQARDEVIGILKAEKMDLALLEAQYGFVTPKKVLEALQRDAFQAKSTPWQEDIYEKPMNELDKVVEKHKESYRRILGQLLVAEKSRRQTILELEEEKRKHKEYMEKSDEFICLLEQECERLKKLIDQEIKSQEEKEQEKEKRVTTLKEELTKLKSFALMVVDEQQRLTAQLTLQRQKIQELTTNAKETHTKLALAEARVQEEEQKATRLEKELQTQTTKFHQDQDTIMAKLTNEDSQNRQLQQKLAALSRQIDELEETNRSLRKAEEELQDIKEKISKGEYGNAGIMAEVEELRKRVLDMEGKDEELIKMEEQCRDLNKRLERETLQSKDFKLEVEKLSKRIMALEKLEDAFNKSKQECYSLKCNLEKERMTTKQLSQELESLKVRIKELEAIESRLEKTEFTLKEDLTKLKTLTVMFVDERKTMSEKLKKTEDKLQAASSQLQVEQNKVTTVTEKLIEETKRALKSKTDVEEKMYSVTKERDDLKNKLKAEEEKGNDLLSRVNMLKNRLQSLEAIEKDFLKNKLNQDSGKSTTALHQENNKIKELSQEVERLKLKLKDMKAIEDDLMKTEDEYETLERRYANERDKAQFLSKELEHVKMELAKYKLAEKTETSHEQWLFKRLQEEEAKSGHLSREVDALKEKIHEYMATEDLICHLQGDHSVLQKKTKSTRKQEQRFRKRD
notes: Full length; tested as GAL4 domain fusion in yeast two-hybrid/three-hybrid; fusion parts are not written as pieces
binds: all assays above
